Consider 1 substance from paper doi:10.1101/2025.04.17.649292.

For the experiment, the target named is poly-L-proline (PLP) coupled to Sepharose 4B. The experiment can be described thus: affinity chromatography on poly-L-proline Sepharose.

Consider “GST-δLdPfn (LdPfn with amino acids 110 to 128 deleted, N-terminal GST tag) (natural protein)”, for which the reduction of binding to PLP relative to GST-LdPfn turned out to be 30%.
